Assay results reported in patent US20090257987A1, “Method of generating dopamine-secreting cells” (Ramot At Tel Aviv University Ltd., priority 2008, published 2009).

How the values were obtained:
Format in all cases: cell-based
human MSCs [1] = assay: Real-time quantitative PCR of Nurr1 and GAD67; conditions: real-time PCR versus GAPDH
Method: (§1) Induction of differentiation: The differentiation protocol was composed of 2 steps. In step 1, cells were transferred to serum-free medium (DMEM) supplemented with 2 mM glutamine, 100 μg/ml streptomycin, 100 units/ml penicillin, 12.5 units/ml nystatin (Biological Industries), N2 supplement (Invitrogen, New Haven, Conn.) and 20 ng/ml fibroblast growth factor 2 and epidermal growth factor (both from R&D Systems, Minneapolis, Minn.) for 48-72 hours. […]
RNA isolation and cDNA synthesis: Total RNA was isolated by a commercial TriReagent (Sigma). The amount and quality of RNA was determined with the ND-1000 spectrophotometer (NanoDrop, Wilmington, Del.). […]
Real-time quantitative reverse transcription polymerase chain reaction (PCR): Real-time quantitative PCR of the desired genes was performed in an ABI Prism 7700 sequence detection system (Applied Biosystems, Foster City, Calif.) using Syber Green PCR Master Mix (Applied Biosystems) and the following primers: glyceraldehyde-3-phosphate dehydrogenase (GAPDH) sense CGACAGTCAGCCGCATCTT (SEQ ID NO: 1), GAPDH antisense […] […] For each gene, the specificity of the PCR product was assessed by verifying a single peak in the melting curve analysis. […] Quantitative calculations of the gene of interest versus GAPDH were done according to the ΔΔCT method, as instructed in the user bulletin of the ABI Prism 7700 sequence detection system (updated 10/2001).

human MSCs [2] = assay: Intracellular FACS analysis of TH expression; conditions: none of the untreated cells
Method: as §1, with “hours. In step 2, the medium was changed to Basic induction medium containing Neurobasal, B27 (both from Invitrogen), in addition to 1 mM dibutyryl cyclic AMP (dbcAMP), 3-isobutyl-1-methyl-xanthine (IBMX), and 200 μM ascorbic acid (all from Sigma, St Louis, Mo.).” for “hours.”
Intracellular fluorescence-activated cell sorter (FACS) analysis: Cells were harvested from the tissue culture flasks, centrifuged, and resuspended in phosphate-buffered saline (PBS). […] The results were analyzed with CellQuest software. […]

human MSCs [3] = assay: Bright-light microscopy of cell morphology after induction; conditions: from MSC fibroblast shape
Method: (§2) Induction of differentiation: The differentiation protocol was composed of 2 steps. In step 1, cells were transferred to serum-free medium (DMEM) supplemented with 2 mM glutamine, 100 μg/ml streptomycin, 100 units/ml penicillin, 12.5 units/ml nystatin (Biological Industries), N2 supplement (Invitrogen, New Haven, Conn.) and 20 ng/ml fibroblast growth factor 2 and epidermal growth factor (both from R&D Systems, Minneapolis, Minn.) for 48-72 hours. In step 2, the medium was changed to Basic induction medium containing Neurobasal, B27 (both from Invitrogen), in addition to 1 mM dibutyryl cyclic AMP (dbcAMP), 3-isobutyl-1-methyl-xanthine (IBMX), and 200 μM ascorbic acid (all from Sigma, St Louis, Mo.). The following factors were added to the Basic induction medium in different combinations: brain-derived neurotrophic factor (BDNF; 50 ng/ml), glial-derived neurotrophic factor (GDNF;10 ng/ml), neurturin (100 ng/ml), neurotrophin 3 (NT3; 50 ng/ml), and fibroblast growth factor 8 (FGF8; 100 ng/ml (all from Cytolab, Rehovot, Israel); transforming growth factor β3 (TGFβ3; 2 ng/ml), sonic hedgehog (Shh; 500 ng/ml, both from R&D); estrogen (0.1 μM, Sigma); and all-trans-retinoic acid (RA; 0.1 μM, Sigma).

human MSCs [4] = assay: HPLC analysis of dopamine secretion
Method: as §2, with “Sigma). High performance liquid chromotography (HPLC): Reverse-phase HPLC coupled with an electrochemical detector (ECD) was used to measure dopamine levels. […]” for “Sigma).”

B1: brain-derived neurotrophic factor (protein, UniProt P23560 19-247, looked up)
Neurotrophic factor BDNF …: APMKEANIRGQGGLAYPGVRTHGTLESVNGPKAGSRGLTSLADTFEHVIEELLDEDQKVRPNEENNKDADLYTSRVMLSSQVPLEPPLLFLLEEYKNYLDAANMSMRVRRHSDPARRGELSVCDSISEWVTAADKKTAVDMSGGTVTVLEKVPVSKGQLKQYFYETKCNPMGYTKEGCRGIDKRHWNSQCRTTQSYVRALTMDSKKRIGWRFIRIDTSCVCTLTIKRGR
notes: brain-derived neurotrophic factor (50 ng/ml) added to the Basic induction medium
GAD67 expression (human MSCs [1]): down regulation
Nurr1 expression (human MSCs [1]; compared to untreated MSCs): significant upregulation
induced cells expressing the TH protein at a detectable level (human MSCs [2]): More than 30%
cell morphology (human MSCs [3]): neuron-like appearance
dopamine secreted to the depolarization buffer (mean) (human MSCs [4]; 56 mM KCL in HBSS for 30 minutes): 1127.86 pg/ml of dopamine per 10^6 cells
dopamine secreted to the conditioned media (mean) (human MSCs [4]; differentiation medium): 673.69 pg/ml of dopamine per 10^6 cells
